Source: the supplement of paper PMC9942255
Where “and” joins values, the source holds several entries; their conditions need not be identical. Equal entries are not always repeated.

Test system: Bacillus subtilis DB104 (SP-AmyQ fusion secretion)
Test: AmyQ secretion efficiency, weighted average sort bin (1 = best secretion, 10 = worst) (bin number (weighted average, 1-10)); higher = lower secretion efficiency
How it was run: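 In this assay, the secretion score is defined as the average bin number weighted by read frequency, normalised to beads per bin, with low-abundance sequences not counted. B. subtilis DB104 cells expressing mature AmyQ behind designed signal peptides (amyE-integrated) were enclosed with fluorescein-starch in ~65 nL alginate beads at about 0.3 cells per bead. Beads grew about 13 h at room temperature, were stained with nile red, and occupied beads went into 10 equally populated green/red fluorescence ratio bins by large-particle flow cytometry, whose amplicons were Illumina-sequenced.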

## MRKKRVKRCKKKRSLTLGSLLPAGYASAKED
  AmyQ secretion efficiency: 7.22

## MRKKRVKRCVMAASLTLGSLLPAGYASAKED
  AmyQ secretion efficiency: 3.34

## MRKKRVRKCKKAASLTLGSLLPAGYASAKED
  AmyQ secretion efficiency: 7.62

## MRKKRYGKCRQGSSLTLGSLLPAGYATAKED
  AmyQ secretion efficiency: 8.17

## MRKKTKNRLISSQKSTVVISSLLFPGAAGASSK
  AmyQ secretion efficiency: 8.12

## MRKKTKNRLISSVLFMVVIMILLFSPGAAGASSK
  AmyQ secretion efficiency: 1.52

## MRKKTKNRLISSVLSTVVISSLLFAPGAAGASSK
  AmyQ secretion efficiency: 2.22

## MRKKTKNRLISSVLSTVVISSLLFKRKAGASSK
  AmyQ secretion efficiency: 7.11

## MRKKTKNRLISSVLSTVVISSLLFPGAAFAGASSK
  AmyQ secretion efficiency: 1.5

## MRKKTKNRLISSVLSTVVISSLLFPGAAGARKK
  AmyQ secretion efficiency: 2.52

## MRKKTKNRLISSVLSTVVISSLLFPGAAGASEE
  AmyQ secretion efficiency: 2.7

## MRKKTKNRLISSVLSTVVISSLLFPGAAGASSD
  AmyQ secretion efficiency: 2.47

## MRKKTKNRLISSVLSTVVISSLLFPGAAGASSK
  AmyQ secretion efficiency: 1.59 and 2.27 and 1.9

## MRKKTKNRLISSVLSTVVISSLLFPGAAGASSP
  AmyQ secretion efficiency: 1.67

## MRKKTKNRLISSVLSTVVISSLLFPGAAGCSSK
  AmyQ secretion efficiency: 5.98

## MRKKTKNRLISSVLSTVVISSLLFPQEAGASSK
  AmyQ secretion efficiency: 1.83

## MRKKTKNRLISSVLSTVVISSPGAAGASSK
  AmyQ secretion efficiency: 3.33

## MRKKTKNRLISSVRKTVVISSLLFPGAAGASSK
  AmyQ secretion efficiency: 4.05

## MRKLKRVLLLLVTGLFMSLFAVTATASAQTG
  AmyQ secretion efficiency: 1.02

## MRKLWISLLFALTLIFTMAFSNMSAQAAGK
  AmyQ secretion efficiency: 2.67

## MRKNNNLFFFFMTIFAFLTGLMMFGTITAASASPD
  AmyQ secretion efficiency: 3.7

## MRKNRIKRKKVLSLGLLSFMVTPVSAASK
  AmyQ secretion efficiency: 7.91

## MRKNRILALFVLSLGLLFSFMVTPVSAASK
  AmyQ secretion efficiency: 1.99

## MRKNRILALFVLSLGLLKRKRKKVSAASK
  AmyQ secretion efficiency: 6.69

## MRKNRILALFVLSLGLLRRKVTPVSAASK
  AmyQ secretion efficiency: 7.91

## MRKNRILALFVLSLGLLSFMVTPCSAASK
  AmyQ secretion efficiency: 2.01

## MRKNRILALFVLSLGLLSFMVTPISAASK
  AmyQ secretion efficiency: 2.15

## MRKNRILALFVLSLGLLSFMVTPSSTVSAASK
  AmyQ secretion efficiency: 2.01

## MRKNRILALFVLSLGLLSFMVTPTSAASK
  AmyQ secretion efficiency: 2

## MRKNRILALFVLSLGLLSFMVTPVSAASK
  AmyQ secretion efficiency: 2.04 and 2.05 and 2.92

## MRKNRILALFVLSLGLLSFMVTPVSAKRK
  AmyQ secretion efficiency: 2.57

## MRKNRILALFVLSLGLLSFMVTPVSRASK
  AmyQ secretion efficiency: 8.98

## MRKNRILALFVLSLGLLSFMVTPVSTASK
  AmyQ secretion efficiency: 5.93

## MRKNRLLLNILALFVLSLGLLSFMVTPVSAASK
  AmyQ secretion efficiency: 1.08

## MRKNRRGKQGTLSLGLLSFMVTPVSAASK
  AmyQ secretion efficiency: 7.32

## MRKNRSSMSFTLILALFVLSLGLLSFMVTPVSAASK
  AmyQ secretion efficiency: 1.45

## MRKRKILLSSALSLGMLVSAAPVLATSS
  AmyQ secretion efficiency: 2.04

## MRKRKKKSMLTVMIASLFIFSSQALAVQY
  AmyQ secretion efficiency: 6.79

## MRKRKKLSVAVAASFMSLSISLPGVQAAEG
  AmyQ secretion efficiency: 1.73

## MRKRKKRLSVAVAASFMSLSISLPGVQAAEG
  AmyQ secretion efficiency: 2.16

## MRKRKKRTIFAFLTGLMMFGTITAASASPD
  AmyQ secretion efficiency: 5.69

## MRKRKRRLILSAVLFLSCFFGARQTEASASKR
  AmyQ secretion efficiency: 2.98

## MRKRKVVGFLSVLGLAAVFPLTAQAEKA
  AmyQ secretion efficiency: 3.02

## MRKRLFRVCFLAALIMAFTLPNSVYAQKP
  AmyQ secretion efficiency: 2.73

## MRKRQGSGYGGLMMFGTITAASASPD
  AmyQ secretion efficiency: 7.27

## MRKRRKKILALFVLSLGLLSFMVTPVSAASK
  AmyQ secretion efficiency: 2.65

## MRKRRKRGIQAFAGGIILATAVLAAVFYLTDEDQAAAV
  AmyQ secretion efficiency: 6.73

## MRKRRTIFAFLTGLMMFGTITAASASPD
  AmyQ secretion efficiency: 4.74

## MRKRTKTSLLLAGLCTAAQMVFVTHASAEES
  AmyQ secretion efficiency: 3.51

## MRKSLITLGLASFTILVIGTSSFLIPFTSKTASAETL
  AmyQ secretion efficiency: 1.81

## MRKSLITLGLASIVIGTSSFLIPFTSKTASAETL
  AmyQ secretion efficiency: 2.2

## MRKSLITLGLASVIGTKASAETL
  AmyQ secretion efficiency: 5.6

## MRKSLITLGLASVIGTSSFLIPFTKASAETL
  AmyQ secretion efficiency: 2.6

## MRKSLITLGLASVIGTSSFLIPFTSKTASAETL
  AmyQ secretion efficiency: 2.73 and 5.9 and 4.16

## MRKSLITLGLASVIGTSSFLIPFTSKTHSAETL
  AmyQ secretion efficiency: 6.74

## MRKSLITLGLASVIGTSSFLIPFTSKTLSAETL
  AmyQ secretion efficiency: 4.7

## MRKSLITLGLASVISIIVFLIAFTSKTASAETL
  AmyQ secretion efficiency: 2.48

## MRKTIFAFLTGLMMFEDDEEDASASPD
  AmyQ secretion efficiency: 5.45

## MRKTIFAFLTGLMMFFGTITAASASPD
  AmyQ secretion efficiency: 1.98

## MRKTIFAFLTGLMMFGTITAASASPF
  AmyQ secretion efficiency: 4.61

## MRKTIFAFLTGLMMFGTITAASASPR
  AmyQ secretion efficiency: 4.47

## MRKTIFAFLTGLMMFGTITAASKSPD
  AmyQ secretion efficiency: 6

## MRKTIFAFLTGLMMFGTITAASRSPD
  AmyQ secretion efficiency: 6.51

## MRKTIFAFLTGLMMFGTITACSASPD
  AmyQ secretion efficiency: 5.81

## MRKTIFAFLTGLMMFGTITAISASPD
  AmyQ secretion efficiency: 5.52

## MRKTIFAFLTGLMMFGTITALSASPD
  AmyQ secretion efficiency: 5.45

## MRKTIFAFLTGLMMFGTITAMSASPD
  AmyQ secretion efficiency: 5.39

## MRKTIFAFLTGLMMFGTITAPSASPD
  AmyQ secretion efficiency: 5.98

## MRKTIFAFLTGLMMFGTITAQSASPD
  AmyQ secretion efficiency: 5.11

## MRKTIFAFLTGLMMFGTITASPSTASASPD
  AmyQ secretion efficiency: 2.04

## MRKTIFAFLTGLMMFIFTSSGTITAASASPD
  AmyQ secretion efficiency: 1.89

## MRKTIFAFLTGLMMFKKRTAASASPD
  AmyQ secretion efficiency: 6.93

## MRKTIFAFLTGLMMFKRRKKKASASPD
  AmyQ secretion efficiency: 7.76

## MRKTKKRKLTGLMMFGTITAASASPD
  AmyQ secretion efficiency: 4.65

## MRKTRRKKKRGLMMFGTITAASASPD
  AmyQ secretion efficiency: 5.82

## MRKTSLLLAGLCTAAQMVFVTHASAEES
  AmyQ secretion efficiency: 2.32

## MRKVFPLILSAVLFLSCFFGARQTEASASKR
  AmyQ secretion efficiency: 2.13

## MRKVITCVMAASLTLGSLLPAGYASAKED
  AmyQ secretion efficiency: 3.26

## MRKVITCVMAASLTLGSLLPAGYATAKED
  AmyQ secretion efficiency: 3.88

## MRKVLTMCFLGLILFVPTALADNS
  AmyQ secretion efficiency: 2.17

## MRKVVGFLSVLGLAAVFPLTAQAEKA
  AmyQ secretion efficiency: 2.03

## MRKWYFILLAGVLTSVILAFVYDKGKANEE
  AmyQ secretion efficiency: 2.67

## MRKWYFILLAGVLTSVILAFVYDKTKANDD
  AmyQ secretion efficiency: 6.75

## MRKWYFILLAGVLTSVILAFVYDKTKYNEE
  AmyQ secretion efficiency: 4.09

## MRKWYQYQGAGVLTSVILAFVYDKTKANEE
  AmyQ secretion efficiency: 8.25

## MRKYTFVIASILLSFLSVLSGGHHESKAFPV
  AmyQ secretion efficiency: 5.44

## MRKYTQIASILLSFLSVLSGGHHESKAFPV
  AmyQ secretion efficiency: 6.41

## MRKYTTKGYQKTYFLSVLSGGHHESKAFPV
  AmyQ secretion efficiency: 8.3

## MRKYTVIASILLSFLSVLASTVFVSKAFPV
  AmyQ secretion efficiency: 8.75

## MRKYTVIASILLSFLSVLDEDDEDHHESKAFPV
  AmyQ secretion efficiency: 5.95

## MRKYTVIASILLSFLSVLESKAFPV
  AmyQ secretion efficiency: 4.71

## MRKYTVIASILLSFLSVLFGFHHESKAFPV
  AmyQ secretion efficiency: 3.04

## MRKYTVIASILLSFLSVLFGVAHESKAFPV
  AmyQ secretion efficiency: 3.89

## MRKYTVIASILLSFLSVLFIVVVTSKAFPV
  AmyQ secretion efficiency: 5.84

## MRKYTVIASILLSFLSVLKKKKHHKSKAFPV
  AmyQ secretion efficiency: 7.85

## MRKYTVIASILLSFLSVLRGGHHRSKAFPV
  AmyQ secretion efficiency: 7.77

## MRKYTVIASILLSFLSVLSGGHHESKAFPR
  AmyQ secretion efficiency: 4.58

## MRKYTVIASILLSFLSVLSGGHHESKAFPV
  AmyQ secretion efficiency: 3.25 and 4.96

## MRKYTVIASILLSFLSVLSGGHHESKARRR
  AmyQ secretion efficiency: 7.19

## MRKYTVIASILLSFLSVLSGGHHEVATSKAFPV
  AmyQ secretion efficiency: 3.74

## MRKYTVIASILLSFLSVLSGGHHEWKAFPV
  AmyQ secretion efficiency: 4.79

## MRKYTVKRSILLSFLSVLSGGHHESKAFPV
  AmyQ secretion efficiency: 6.95

## MRKYTVRRKRKRSFLSVLSGGHHESKAFPV
  AmyQ secretion efficiency: 7.56

## MRMLWRGQKSCGTYLTLAPCAQAAEP
  AmyQ secretion efficiency: 7.51

## MRMLWRMLALCLLALLLAPCAQAAEP
  AmyQ secretion efficiency: 1.73

## MRMLWRMMISLALCGLALTLAPCAQAAEP
  AmyQ secretion efficiency: 1.79

## MRMLWRSKRLCGLALTLAPCAQAAEP
  AmyQ secretion efficiency: 6.7

## MRMLWRSKRRCKLALTLAPCAQAAEP
  AmyQ secretion efficiency: 7.06

## MRMLWRSLALCGLALPCAQAAEP
  AmyQ secretion efficiency: 6.75

## MRMLWRSLALCGLALTLADDDCAQAAEP
  AmyQ secretion efficiency: 2.72

## MRMLWRSLALCGLALTLAFLSVSLFFVPCAQAAEP
  AmyQ secretion efficiency: 1.41

## MRMLWRSLALCGLALTLAICIAQAAEP
  AmyQ secretion efficiency: 4.76

## MRMLWRSLALCGLALTLAKRRCAQAAEP
  AmyQ secretion efficiency: 6.64

## MRMLWRSLALCGLALTLALPCAQAAEP
  AmyQ secretion efficiency: 2.19

## MRMLWRSLALCGLALTLAPCAQAAKK
  AmyQ secretion efficiency: 2.93

## MRMLWRSLALCGLALTLAPCAQAAPK
  AmyQ secretion efficiency: 2.07

## MRMLWRSLALCGLALTLAPCAQAATP
  AmyQ secretion efficiency: 2.06

## MRMLWRSLALCGLALTLAPCAQADDD
  AmyQ secretion efficiency: 4.62

## MRMLWRSLALCGLALTLAPCAQCAEP
  AmyQ secretion efficiency: 3.11

## MRMLWRSLALCGLALTLAPCAQGAEP
  AmyQ secretion efficiency: 2.58

## MRMLWRSLALCGLALTLAPCAQIAEP
  AmyQ secretion efficiency: 6.42

## MRMLWRSLALCGLALTLAPCAQLAEP
  AmyQ secretion efficiency: 6.58

## MRMLWRSLALCGLALTLAPCAQSAEP
  AmyQ secretion efficiency: 2.34

## MRMLWRSLALCGLALTLAPCAQVAEP
  AmyQ secretion efficiency: 6.05

## MRMLWRSLALCGLALTLAPCAQWAEP
  AmyQ secretion efficiency: 5.9

## MRMLWRSLALCGLALTLAPCCQAAEP
  AmyQ secretion efficiency: 1.93

## MRMLWRSLALCGLALTLAPCFVVTPASAQAAEP
  AmyQ secretion efficiency: 2.23

## MRMLWRSLALCGLALTLAPCMQAAEP
  AmyQ secretion efficiency: 1.94
